Experimental data reported in article PMC10412584, “Molecular reshaping of phage-displayed Interleukin-2 at beta chain receptor interface to obtain potent super-agonists with improved developability profiles” (Communications Biology, 2023).
Where two headings read alike, the source gives them in different places.

Key:
[1] = biological target: T1, human IL-2 receptor beta chain extracellular domain (ECD) (human, UniProt P14784 27-240); assay: ELISA; polyvinyl chloride plates coated with human beta chain ECD; purified phage preparations of individual clones; bound phages detected with anti-M13-HRP; relative reactivity = signal on beta chain / signal on 9E10 (anti-c-myc); conditions: both partners purified
T1 construct: human IL-2 receptor beta subunit (CD122), recombinant extracellular domain; Coated on immunotubes for panning and on plates for phage ELISA; also called hIL-2R beta subunit ECD; beta chain ECD; source: bought: R&D Systems
T1 sequence (looked up): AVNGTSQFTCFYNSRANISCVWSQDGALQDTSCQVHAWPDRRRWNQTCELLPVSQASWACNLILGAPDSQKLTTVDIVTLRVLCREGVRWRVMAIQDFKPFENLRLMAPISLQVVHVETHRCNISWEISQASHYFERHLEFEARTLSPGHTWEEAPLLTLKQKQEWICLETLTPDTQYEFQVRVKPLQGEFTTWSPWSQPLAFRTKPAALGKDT

[2] = biological target: T2, 80FDPHDVVE87 + I92L + V93L(K35E)/Fc (human, UniProt P60568 21-153, K35E | L80F | R81D | R83H (from the name 80FDPHDVVE87) | L85V | I86V | S87E | …); assay: SPR
[3] = biological target: T3, 80VPPEDLIE87 + I92L(K35E)/Fc (human, UniProt P60568 21-153, K35E | L80V (from the name 80VPPEDLIE87) | R81P (from the name 80VPPEDLIE87) | …); assay: SPR
[4] = biological target: T4, 80VPPEDLIA87 + I92L(K35E)/Fc (human, UniProt P60568 21-153, K35E | L80V (from the name 80VPPEDLIA87) | R81P (from the name 80VPPEDLIA87) | …); assay: SPR
IL-2(K35E)/Fc [5] = biological target: T5, IL-2(K35E)/Fc (human, UniProt P60568 21-153, K35E); assay: SPR
H9(K35E)/Fc [6] = biological target: T6, H9(K35E)/Fc (human, UniProt P60568 21-153, K35E | L80F | R81D | L85V | I86V | I92F); assay: SPR
[7] = biological target: T7, 80FDPEDVVE87 + I92L(K35E)/Fc (human, UniProt P60568 21-153, K35E | L80F | R81D | R83 was replaced by either Ala or Glu (here Glu) | L85V | …); assay: SPR
[8] = biological target: T8, 80FDPADVVE87 + I92L(K35E)/Fc (human, UniProt P60568 21-153, K35E | L80F | R81D | R83 was replaced by either Ala or Glu (here Ala) | L85V | …); assay: SPR
[9] = biological target: T9, H9(K35E)/Fc in which F92 was replaced by the phage-selected Leu (human, UniProt P60568 21-153, K35E | L80F | R81D | L85V | I86V | I92L); assay: SPR
[10] = biological target: T10, H9(K35E)/Fc in which F92 was replaced by the original Ile (human, UniProt P60568 21-153, K35E | L80F | R81D | L85V | I86V); assay: SPR
IL-2(K35E)/Fc [11] = biological target: T5, IL-2(K35E)/Fc; assay: SPR; remark: listed apart in the source
H9(K35E)/Fc [12] = biological target: T6, H9(K35E)/Fc; assay: SPR; remark: listed apart in the source
[13] = biological target: T11, fusion protein containing I92L-hIL-2 (K35E, human IgG1 Fc) (human, UniProt P60568 21-153, K35E | I92L); assay: SPR
[14] = biological target: T2, 80FDPHDVVE87 + I92L + V93L(K35E)/Fc; assay: SPR; remark: listed apart in the source
[15] = biological target: T3, 80VPPEDLIE87 + I92L(K35E)/Fc; assay: SPR; remark: listed apart in the source
[16] = biological target: T4, 80VPPEDLIA87 + I92L(K35E)/Fc; assay: SPR; remark: listed apart in the source
IL-2(K35E)/Fc [17] = biological target: T5, IL-2(K35E)/Fc; assay: SPR; remark: listed apart in the source
H9(K35E)/Fc [18] = biological target: T6, H9(K35E)/Fc; assay: SPR; remark: listed apart in the source
[19] = biological target: T7, 80FDPEDVVE87 + I92L(K35E)/Fc; assay: SPR; remark: listed apart in the source
[20] = biological target: T8, 80FDPADVVE87 + I92L(K35E)/Fc; assay: SPR; remark: listed apart in the source
[21] = biological target: T9, H9(K35E)/Fc in which F92 was replaced …; assay: SPR; remark: listed apart in the source
[22] = biological target: T10, H9(K35E)/Fc in which F92 was replaced …; assay: SPR; remark: listed apart in the source
IL-2(K35E)/Fc [23] = biological target: T5, IL-2(K35E)/Fc; assay: SPR; remark: listed apart in the source
H9(K35E)/Fc [24] = biological target: T6, H9(K35E)/Fc; assay: SPR; remark: listed apart in the source
[25] = biological target: T11, fusion protein containing I92L-hIL-2 …; assay: SPR; remark: listed apart in the source

B1: phage-displayed hIL-2 variant 2B (S2 library) (ligand, human, UniProt P60568 23-153, looked up)
chain: TSSSTKKTQLQLEHLLLDLQMILNGINNYKNPKLTRMLTFKFYMPKKATELKHLQCLEEELKPLEEVLNLAQSKNFHVPPEDLIANINVLVLELKGSETTFMCEYADETATIVEFLNRWITFCQSIISTLT
notes: No K35E on the phage
binding result [1]: binds

B2: recombinant fusion protein comprising human IL-2R beta subunit extracellular domain and mouse IgG2a Fc (Fc fusion)
chain: T1 sequence (looked up)
koff [2]: 0.000266 s⁻¹ | koff [3]: 0.000304 s⁻¹ | koff [4]: 0.000349 s⁻¹ | koff (IL-2(K35E)/Fc [5]): 0.00326 s⁻¹ | koff (H9(K35E)/Fc [6]): 0.000395 s⁻¹ | koff [7]: 0.000273 s⁻¹ | koff [8]: 0.000461 s⁻¹ | Kd [9]: 3.35 nM | Kd [10]: 3.84 nM | Kd (IL-2(K35E)/Fc [11]): 103 nM | Kd (H9(K35E)/Fc [12]): 4.47 nM | Kd [13]: 36.5 nM | Kd [14]: 1.12 nM | Kd [15]: 0.37 nM | Kd [16]: 0.8 nM | Kd (IL-2(K35E)/Fc [17]): 106 nM | Kd (H9(K35E)/Fc [18]): 4.09 nM | Kd [19]: 0.29 nM | Kd [20]: 0.54 nM | koff [21]: 0.000298 s⁻¹ | koff [22]: 0.000251 s⁻¹ | koff (IL-2(K35E)/Fc [23]): 0.00308 s⁻¹ | koff (H9(K35E)/Fc [24]): 0.000218 s⁻¹ | koff [25]: 0.00113 s⁻¹
